Drawing on publication PMC11869295, “Molecular Principles of Proton-Coupled Quinone Reduction in the Membrane-Bound Superoxide Oxidase” (Journal of the American Chemical Society, 2025), this text covers Km for four molecules.

Common to all, as to assay: WST-1 competition assay, decrease of formazan formation rate on SOO addition
Data set [1] has as its target T1, superoxide oxidase (SOO); CybB (Escherichia coli, UniProt P0ABE5, H158F).
T1 construct: full length with C-terminal 8xHis tag, expressed in E. coli BL21(DE3) pLysS, membrane protein purified in detergent (OGNG, assayed in DDM), two b hemes
The format is biochemical. The note with it: apparent Km; forward reaction, superoxide from xanthine oxidase/hypoxanthine, bo3 oxidase regenerates quinone, 50 nM SOO, 100 mM sodium phosphate pH 8, 0.05% DDM; range printed jointly for H158A and H.

Data set [2] addresses T2, superoxide oxidase (SOO); CybB (Escherichia coli, UniProt P0ABE5, H158A).
T2 construct: full length with C-terminal 8xHis tag, expressed in E. coli BL21(DE3) pLysS, membrane protein purified in detergent (OGNG, assayed in DDM), two b hemes
The format is biochemical. The note with it: apparent Km; forward reaction, superoxide from xanthine oxidase/hypoxanthine, bo3 oxidase regenerates quinone, 50 nM SOO, 100 mM sodium phosphate pH 8, 0.05% DDM; range printed jointly for H158A and H.

Substrate in data set [3]: COC1=C(OC)C(=O)C(C/C=C(\C)CCC=C(C)C)=C(C)C1=O
It counts as biochemical, Escherichia coli. As to conditions: apparent Km, forward reaction, superoxide from xanthine oxidase/hypoxanthine, bo3 oxidase regenerates quinone, 50 nM SOO, 100 mM sodium phosphate pH 8, 0.05% DDM.

T2 sequence (P0ABE5 whole entry H158A): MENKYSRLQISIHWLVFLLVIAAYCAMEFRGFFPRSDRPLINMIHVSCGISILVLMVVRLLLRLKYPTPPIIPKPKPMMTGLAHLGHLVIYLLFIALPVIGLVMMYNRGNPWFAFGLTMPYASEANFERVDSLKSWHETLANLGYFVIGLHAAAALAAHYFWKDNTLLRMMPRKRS
T1 sequence (P0ABE5 whole entry H158F): as the sequence (P0ABE5 whole entry H158A) above, with A158F counted along it

In general, Km refers to the substrate concentration at which the rate is half of its maximum. `COC1=C(OC)C(=O)C(C/C=C(\C)CCC=C(C)C)=C(C)C1=O` [ubiquinone Q2]: the Km in data set [1] and in data set [2] was 8 to 13 µM each time.

B1: superoxide oxidase (SOO); CybB (Escherichia coli K-12) (protein)
chain: MENKYSRLQISIHWLVFLLVIAAYCAMEFRGFFPRSDRPLINMIHVSCGISILVLMVVRLLLRLKYPTPPIIPKPKPMMTGLAHLGHLVIYLLFIALPVIGLVMMYNRGNPWFAFGLTMPYASEANFERVDSLKSWHETLANLGYFVIGLHAAAALAHHYFWKDNTLLRMMPRKRS
notes: full length with C-terminal 8xHis tag, expressed in E. coli BL21(DE3) pLysS, membrane protein purified in detergent (OGNG, assayed in DDM), two b hemes
As for B1, the Michaelis-Menten constant (Km) in data set [3] was determined as 0.4 µM.

B2: superoxide oxidase (SOO); CybB (Escherichia coli K-12; D164A) (protein)
chain: MENKYSRLQISIHWLVFLLVIAAYCAMEFRGFFPRSDRPLINMIHVSCGISILVLMVVRLLLRLKYPTPPIIPKPKPMMTGLAHLGHLVIYLLFIALPVIGLVMMYNRGNPWFAFGLTMPYASEANFERVDSLKSWHETLANLGYFVIGLHAAAALAHHYFWKANTLLRMMPRKRS
notes: as for B1
For the molecule B2, the Km in data set [3] was determined as 5 µM.

B3: superoxide oxidase (SOO); CybB (Escherichia coli K-12; D164E) (protein)
chain: MENKYSRLQISIHWLVFLLVIAAYCAMEFRGFFPRSDRPLINMIHVSCGISILVLMVVRLLLRLKYPTPPIIPKPKPMMTGLAHLGHLVIYLLFIALPVIGLVMMYNRGNPWFAFGLTMPYASEANFERVDSLKSWHETLANLGYFVIGLHAAAALAHHYFWKENTLLRMMPRKRS
notes: as for B1
As to B3, in data set [3], the Km came out at 3 µM.
